# Reference: publication PMC10499821 (Nature Communications, 2023)
# Where no end group is shown, it is not given here. The star is where a group is joined. FITC = O=C1OC2(c3ccc(O)cc3Oc3cc(O)ccc32)c2ccc(NC(=S)*)cc21
# B1: DYRK1B_(395–410) (peptide)
# peptide: PGHSPADYLRFQDLVL
# notes: also called DYRK1B peptide; DYRK1B_(394–409)
# Experiments:
# Nsp9 = Nsp9 (SARS-CoV-2, UniProt P0DTD1); test: fluorescence polarisation; conditions: both partners purified
# Nsp16 = Nsp16 (SARS-CoV-2, UniProt P0DTD1 6799-7096); test: fluorescence polarisation; conditions: both partners purified
binder,measurement,setting,value
AEGIDIGEMPSYDLVL (also called NKRF peptide) [NKRF_(8–23)],binding result,Nsp9,binds
PAHPDGFALGRAPLA (also called LMTK3 peptide) [LMTK3_(22–36)],binding result,Nsp9,binds
MNIQEQGFPLDLGAS (also called Axin-1 peptide) [AXIN1_(1–15)],binding result,Nsp9,binds
"FQGAWLGCPEPWEPLL (peptide, UniProt Q99466 1605-1620, looked up, also called NOTCH4 peptide) [NOTCH4_(1605–1620)]",Kd,Nsp9,~130 µM
{FITC}-AEGIDIGEMPSYDLVL [FITC-NKRF_(8–23)],binding result,Nsp9,binds
B1,Kd,Nsp16,56 µM
NQDMSAWFNLFADLDP (also called ICA1L peptide) [ICA1L_(450–465)],Kd,Nsp16,30 µM
EDPLDSYLNFQALISP (also called FLJ43738 peptide) [FLJ43738_(76–91)],Kd,Nsp16,62 µM
